Test [1] has as its target RSV protein F of strain B1 (RSV B1 (ATCC number VR-1400)) (UniProt O36634). Put plainly: cell-based or functional assay.
Test [2] has as its target RSV protein F of strain Long (RSV Long (ATCC number VR-26)) (UniProt P12568). Description: cell-based or functional assay.
Test [3] deals with RSV protein F of strain B Wash/18537 (RSV B Wash/18537 (ATCC number VR-1580)) (UniProt P13843). Put plainly: cell-based or functional assay.
For test [4], the target named is RSV protein G (recombinant G protein) (respiratory syncytial virus (RSV), strain not stated). Put plainly: SPR (Biacore), Fab on recombinant antigen.

Sequence of RSV protein F of strain B1 (RSV B1 (ATCC number VR-1400)) (O36634 26-574 limits assumed): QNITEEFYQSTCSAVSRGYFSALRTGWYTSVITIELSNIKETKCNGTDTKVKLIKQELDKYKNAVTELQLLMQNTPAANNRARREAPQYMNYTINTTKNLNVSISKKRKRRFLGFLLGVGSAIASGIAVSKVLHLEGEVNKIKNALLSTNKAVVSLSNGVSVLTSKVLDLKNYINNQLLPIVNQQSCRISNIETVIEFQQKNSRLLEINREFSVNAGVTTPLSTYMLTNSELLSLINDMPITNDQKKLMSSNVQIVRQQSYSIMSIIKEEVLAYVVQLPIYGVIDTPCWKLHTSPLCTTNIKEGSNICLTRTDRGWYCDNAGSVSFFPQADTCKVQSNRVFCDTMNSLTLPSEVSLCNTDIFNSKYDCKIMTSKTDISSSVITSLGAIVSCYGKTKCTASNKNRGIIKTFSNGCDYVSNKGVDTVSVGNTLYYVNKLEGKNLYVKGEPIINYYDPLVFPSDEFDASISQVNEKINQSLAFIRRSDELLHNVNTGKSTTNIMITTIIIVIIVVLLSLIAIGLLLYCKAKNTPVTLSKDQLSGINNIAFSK
Sequence of RSV protein F of strain Long (RSV Long (ATCC number VR-26)) (P12568 26-574): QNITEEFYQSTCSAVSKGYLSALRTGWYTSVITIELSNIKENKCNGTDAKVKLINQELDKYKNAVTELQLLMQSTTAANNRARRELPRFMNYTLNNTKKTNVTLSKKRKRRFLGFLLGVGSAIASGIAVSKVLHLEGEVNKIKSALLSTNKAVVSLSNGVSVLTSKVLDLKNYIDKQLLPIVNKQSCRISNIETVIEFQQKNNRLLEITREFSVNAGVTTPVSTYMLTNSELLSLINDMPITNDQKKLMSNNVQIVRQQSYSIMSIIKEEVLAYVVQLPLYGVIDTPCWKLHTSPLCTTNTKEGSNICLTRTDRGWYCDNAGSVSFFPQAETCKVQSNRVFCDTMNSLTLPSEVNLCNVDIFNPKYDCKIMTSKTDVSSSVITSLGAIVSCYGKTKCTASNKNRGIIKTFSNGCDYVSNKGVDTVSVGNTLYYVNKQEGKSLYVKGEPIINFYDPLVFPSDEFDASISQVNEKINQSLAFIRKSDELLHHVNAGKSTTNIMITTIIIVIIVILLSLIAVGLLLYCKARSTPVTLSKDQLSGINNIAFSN
Sequence of RSV protein F of strain B Wash/18537 (RSV B Wash/18537 (ATCC number VR-1580)) (P13843 26-574): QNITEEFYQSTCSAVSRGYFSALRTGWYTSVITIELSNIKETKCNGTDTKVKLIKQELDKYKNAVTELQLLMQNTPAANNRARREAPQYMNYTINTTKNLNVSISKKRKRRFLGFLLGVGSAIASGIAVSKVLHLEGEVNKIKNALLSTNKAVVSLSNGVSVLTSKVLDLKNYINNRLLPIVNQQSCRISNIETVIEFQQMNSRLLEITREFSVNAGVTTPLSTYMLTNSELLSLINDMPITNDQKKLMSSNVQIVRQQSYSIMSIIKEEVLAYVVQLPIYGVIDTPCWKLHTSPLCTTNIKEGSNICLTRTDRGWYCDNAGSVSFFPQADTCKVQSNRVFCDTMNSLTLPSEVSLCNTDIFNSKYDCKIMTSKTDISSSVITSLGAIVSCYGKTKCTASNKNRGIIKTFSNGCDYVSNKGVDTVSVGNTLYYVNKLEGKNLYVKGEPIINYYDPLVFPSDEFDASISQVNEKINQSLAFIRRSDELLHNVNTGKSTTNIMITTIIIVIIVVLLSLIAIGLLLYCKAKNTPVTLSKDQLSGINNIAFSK

B1: antibody clone 831 (antibody, human IgG1, kappa, V domains shown)
VH: QVQLVQSGAEVKKPGASVKVSCKASANIFTYAMHWVRQAPGQRLEWMGWINVGNGQTKYSQRFQGRVTITRDTSATTAYMELSTLRSEDTAVYYCARRASQYGEVYGNYFDYWGQGTLVTVSS
VL: DIQMTQSPSTLSASVGDRLTITCRASQNIYNWLAWYQQKPGKAPKLLIYDASTLESGVPSRFSGSGSGTEFTLTISSLQPDDFATYYCQQYNSLSPTFGQGTKVEIKR
In test [1], B1 had a PRNT EC50 with complement, RSV B1 of 1.66 µg/mL. Also, the PRNT EC50 with complement, RSV Long in test [2] came out at 0.08 µg/mL. Also, the PRNT EC50 with complement, RSV 18537 in test [3] came out at 0.72 µg/mL.

B2: Fab fragment of antibody clone 853 (Fab)
VH: EVQLVQSGAEVKKPGQSLKISCKTSGYIFTNYWIGWVRQRPGKGLEWMGVIFPADSDARYSPSFQGQVTISADKSIGTAYLQWSSLKASDTAIYYCARPKYYFDSSGQFSEMYYFDFWGQGTLVTVSS
light: EIVLTQSPGTLSLSPGERATLSCRASQSVSSNYLAWYQQKPGQAPRLLIYGASSRAAGMPDRFSGSGSGTDFTLTISRLEPEDFAVYYCQQYGNSPLTFGGGTEVEIKRTVAAPSVFIFPPSDEQLKSGTASVVCLLNNFYPREAKVQWKVDNALQSGNSQESVTEQDSKDSTYSLSSTLTLSKADYEKHKVYACEVTHQGLSSPVTKSFNRGEC
Turning to B2, in test [4], the Kd turned out to be 790 pM, the koff is 0.0014 s⁻¹, the kon was found to be 1.77e+06 M⁻¹ s⁻¹ and the t1/2 came to 8.25 min.

B3: antibody clone 827 (antibody, human IgG1, kappa, V domains shown)
VH: QVQLVQSGAEVKKPGASVKVSCRVSGHTFTALSKHWMRQGPGGGLEWMGFFDPEDGDTGYAQKFQGRVTMTEDTATGTAYMELSSLTSDDTAVYYCATVAAAGNFDNWGQGTLVTVSS
VL: DIQMTQSPSSLAASVGDRVTITCRASQFISSYLHWYQQRPGKAPKLLMYAASTLQSGVPSRFSGSGSGTDFTLTISSLQPEDFATYYCQQSYTNPYTFGQGTKLEIKR
Consider B3, for which the PRNT EC50 with complement, RSV Long in test [2] is 0.16 µg/mL. Also, in test [3], the PRNT EC50 with complement, RSV 18537 turned out to be 0.1 µg/mL.

B4: Fab fragment of antibody clone 796 (Fab)
VH: QVQLVESGGGVVQPGRSLRLSCAASGFSFSHFGMHWVRQVPGKGLEWVAIISYDGNNVHYADSVKGRFTISRDNSKNTLFLQMNSLRDDDTGVYYCAKDDVATDLAAYYYFDVWGRGTLVTVSS
light: DIVMTQTPLSLSVTPGQPASISCRSSQSLLRSDGKTFLYWYLQKPGQSPQPLMYEVSSRFSGVPDRFSGSGSGADFTLNISRVETEDVGIYYCMQGLKIRRTFGPGTKVEIKRTVAAPSVFIFPPSDEQLKSGTASVVCLLNNFYPREAKVQWKVDNALQSGNSQESVTEQDSKDSTYSLSSTLTLSKADYEKHKVYACEVTHQGLSSPVTKSFNRGEC
For B4, in test [4], the Kd is 480 pM, the koff worked out at 0.000403 s⁻¹, the kon was determined as 833000 M⁻¹ s⁻¹ and the t1/2 is 28.7 min.

B5: Fab fragment of antibody clone 859 (Fab)
VH: QVQLVESGGGVVQPGRSLRLSCAVSGSSFSKYGIHWVRQAPGKGLEWVAVISYDGSKKYFTDSVKGRFTIARDNSQNTVFLQMNSLRAEDTAVYYCATGGGVNVTSWSDVEHSSSLGYWGLGTLVTVSS
light: DIQMTQSPSSLSASVGDRVTITCRASQGIRNYLAWYQQKPGKVPKLLVFAASTLQSGVPSRFSGSGSGTDFTLTISSLQPEDVATYYCQRYNSAPLTFGGGTKVEIKRTVAAPSVFIFPPSDEQLKSGTASVVCLLNNFYPREAKVQWKVDNALQSGNSQESVTEQDSKDSTYSLSSTLTLSKADYEKHKVYACEVTHQGLSSPVTKSFNRGEC
As for B5, in test [4], the Kd was found to be 120 pM, the koff was found to be 4.63e-05 s⁻¹, the kon was 380000 M⁻¹ s⁻¹ and the t1/2 was found to be 250 min.

B6: antibody clone 818 (antibody, human IgG1, kappa, V domains shown)
VH: QVTLRESGPAVVKPTETLTLTCAFSGFSLNAGRVGVSWIRQPPGQAPEWLARIDWDDDKAFRTSLKTRLSISKDSSKNQVVLTLSNMDPADTATYYCARTQVFASGGYYLYYLDHWGQGTLVTVSS
VL: DIQMTQSPSSLSASVGDRVTITCRASQTIASYVNWYQQKPGRAPSLLIYAASNLQSGVPPRFSGSGSGTDFTLTISGLQPDDFATYYCQQSYSYRALTFGGGTKVEIKR
For the molecule B6, in test [2], the PRNT EC50 with complement, RSV Long came out at 0.15 µg/mL. The PRNT EC50 with complement, RSV 18537 in test [3] stood at 0.21 µg/mL.

B7: antibody clone 880 (antibody, human IgG1, kappa, V domains shown)
VH: QITLKESGPTLVRPTQTLTLTCTFSGFSLSTSKLGVGWIRQPPGKALEWLALVDWDDDRRYRPSLKSRLTVTKDTSKNQVVLTMTNMDPVDTATYYCAHSAYYTSSGYYLQYFHHWGPGTLVTVSS
VL: DIQMTQSPSSLAASVGDRVTITCRASQTIASYVNWYQQKPGKAPNLLIYAASSLQSGVPSRFSGSGSGTDFTLTISSLQPEDFASYFCQQSYSFPYTFGQGTKLDIKR
In test [1], B7 yielded a PRNT EC50 with complement, RSV B1 of 0.4 µg/mL. In test [2], this molecule displayed a PRNT EC50 with complement, RSV Long of 0.38 µg/mL. Also, the PRNT EC50 with complement, RSV 18537 in test [3] was determined as 0.95 µg/mL.

B8: antibody clone 800 (antibody, human IgG1, kappa, V domains shown)
VH: QVQLVESGGAVVQPGRSLRLSCEVSGFSFSDYGMNWVRQGPGKGLEWVAVIWHDGSNKNYLDSVKGRFTVSRDNSKNTLFLQMNSLRAEDTAVYYCARTPYEFWSGYYFDFWGQGTLVTVSS
VL: AIQLTQSPSSLSASVGDRVTLTCRASQGITDSLAWYQQKPGKAPKVLLYAASRLESGVPSRFSGRGSGTDFTLTISSLQPEDFATYYCQQYSKSPATFGPGTKVEIRR
Turning to B8, in test [1], the PRNT EC50 with complement, RSV B1 is 0.16 µg/mL. Besides, the PRNT EC50 with complement, RSV Long in test [2] came out at 0.15 µg/mL.

B9: Fab fragment of antibody clone 816 (Fab)
VH: EVQLLESGGGLVQPGGSLRLSCVASGFTFSTYAMTWVRQAPGKGLEWVSVIRASGDSEIYADSVRGRFTISRDNSKNTVFLQMDSLRVEDTAVYFCANIGQRRYCSGDHCYGHFDYWGQGTLVTVSS
light: DIVMTQSPLSLPVTPGEPASISCRSSQSLLHSDGRYYVDWYLQKPGQSPHLLIYLASNRASGVPDRFTGSGSGTDFTLKISRVEAEDVGVYYCMQGLHTPWTFGQGTKVDIKRTVAAPSVFIFPPSDEQLKSGTASVVCLLNNFYPREAKVQWKVDNALQSGNSQESVTEQDSKDSTYSLSSTLTLSKADYEKHKVYACEVTHQGLSSPVTKSFNRGEC
Regarding B9, in test [4], the Kd stood at 90 pM, the koff turned out to be 0.000178 s⁻¹, the kon came out at 2.02e+06 M⁻¹ s⁻¹ and the t1/2 worked out at 65 min.

B10: antibody clone 894 (antibody, human IgG1, kappa, V domains shown)
VH: QVQLVESGGGVVQPGKSLRLSCAASGFRFSDYGMHWVRQAPSKGLEWVAVIWHDGSNIRYADSVRGRFSISRDNSKNTLYLQMNSMRADDTAFYYCARVPFQIWSGLYFDHWGQGTLVTVSS
VL: EIVMTQSPATLSVSPGERATLSCRASQSVGNNLAWYQQRPGQAPRLLIYGASTRATGIPARFSGSGSGTEFTLTISSLQSEDFAVYYCQQYDKWPETFGQGTKVDIKR
Consider B10, for which the PRNT EC50 with complement, RSV Long in test [2] is 0.08 µg/mL. In test [3], this molecule gave a PRNT EC50 with complement, RSV 18537 of 0.07 µg/mL.
